In the RNAGym collection of RNA variant scans (doi:10.1021/acssynbio.7b00057):

B1: Pistol ribozyme (parent)
chain: GGGUCGUUGUUCCAUAAUCGCGUGGAUAUGGCACGCAAGUUUCUACCGGGCACCGUAAAUGUCCGACUGGAGCCGUUCGGGCGGCUAUAAACAGACCUCAGGCCCGAAGCGUGGCGGCACCUGCCGCCGGUGGUAAAAAAGAUCGGAAGAGCACACGUCU

Variants of: B1
Assay: aptazyme ON/OFF ratio, guanine; higher = stronger switching; co-transcriptional cleavage with and without guanine

Compared with GGGUCGGCUGUGAAUAAUCGCGUGGAUAUGGCACGCAAGUUUCUACCGGGCACCGUAAAUGUCCGACUGGAGCCGUUCGGGCGGCUAUAAACAGACCUCAGGCCCGAAGCGUGGCGGCACCUGCCGCCGGUGGUAAAAAAGAUCGGAAGAGCACACGUCU [U7G U8C G9U U10G C12G C13A], GGGUCGGCUGUGUAUAAUCGCGUGGAUAUGGCACGCAAGUUUCUACCGGGCACCGUAAAUGUCCGACUGGAGCCGUUCGGGCGGCUAUAAACAGACCUCAGGCCCGAAGCGUGGCGGCACCUGCCGCCGGUGGUAAAAAAGAUCGGAAGAGCACACGUCU [U7G U8C G9U U10G C12G C13U] is lower in “aptazyme ON/OFF ratio” value: 1.28 for the first, 1.23 for the second.

Going from GGGUCGGCUGUGGAUAAUCGCGUGGAUAUGGCACGCAAGUUUCUACCGGGCACCGUAAAUGUCCGACUGGAGCCGUUCGGGCGGCUAUAAACAGACCUCAGGCCCGAAGCGUGGCGGCACCUGCCGCCGGUGGUAAAAAAGAUCGGAAGAGCACACGUCU [U7G U8C G9U U10G C12G C13G] to GGGUCGGCUGCGGAUAAUCGCGUGGAUAUGGCACGCAAGUUUCUACCGGGCACCGUAAAUGUCCGACUGGAGCCGUUCGGGCGGCUAUAAACAGACCUCAGGCCCGAAGCGUGGCGGCACCUGCCGCCGGUGGUAAAAAAGAUCGGAAGAGCACACGUCU [U7G U8C G9U U10G U11C C12G C13G], the “aptazyme ON/OFF ratio” value falls from 1.23 to 1.04.

Going from GGGUCGGCUGCGAAUAAUCGCGUGGAUAUGGCACGCAAGUUUCUACCGGGCACCGUAAAUGUCCGACUGGAGCCGUUCGGGCGGCUAUAAACAGACCUCAGGCCCGAAGCGUGGCGGCACCUGCCGCCGGUGGUAAAAAAGAUCGGAAGAGCACACGUCU [U7G U8C G9U U10G U11C C12G C13A] to GGGUCGGCUGAGGAUAAUCGCGUGGAUAUGGCACGCAAGUUUCUACCGGGCACCGUAAAUGUCCGACUGGAGCCGUUCGGGCGGCUAUAAACAGACCUCAGGCCCGAAGCGUGGCGGCACCUGCCGCCGGUGGUAAAAAAGAUCGGAAGAGCACACGUCU [U7G U8C G9U U10G U11A C12G C13G], the “aptazyme ON/OFF ratio” value falls from 1.26 to 1.12.

Going from GGGUCGGCUGAGUAUAAUCGCGUGGAUAUGGCACGCAAGUUUCUACCGGGCACCGUAAAUGUCCGACUGGAGCCGUUCGGGCGGCUAUAAACAGACCUCAGGCCCGAAGCGUGGCGGCACCUGCCGCCGGUGGUAAAAAAGAUCGGAAGAGCACACGUCU [U7G U8C G9U U10G U11A C12G C13U] to GGGUCGGCUGAGAAUAAUCGCGUGGAUAUGGCACGCAAGUUUCUACCGGGCACCGUAAAUGUCCGACUGGAGCCGUUCGGGCGGCUAUAAACAGACCUCAGGCCCGAAGCGUGGCGGCACCUGCCGCCGGUGGUAAAAAAGAUCGGAAGAGCACACGUCU [U7G U8C G9U U10G U11A C12G C13A], the “aptazyme ON/OFF ratio” value falls from 1.25 to 1.16.

Going from GGGUCGGCUGUUCAUAAUCGCGUGGAUAUGGCACGCAAGUUUCUACCGGGCACCGUAAAUGUCCGACUGGAGCCGUUCGGGCGGCUAUAAACAGACCUCAGGCCCGAAGCGUGGCGGCACCUGCCGCCGGUGGUAAAAAAGAUCGGAAGAGCACACGUCU [U7G U8C G9U U10G C12U] to GGGUCGGCUGUGCAUAAUCGCGUGGAUAUGGCACGCAAGUUUCUACCGGGCACCGUAAAUGUCCGACUGGAGCCGUUCGGGCGGCUAUAAACAGACCUCAGGCCCGAAGCGUGGCGGCACCUGCCGCCGGUGGUAAAAAAGAUCGGAAGAGCACACGUCU [U7G U8C G9U U10G C12G], the “aptazyme ON/OFF ratio” value rises from 1.25 to 1.5.

Going from GGGUCGGCUGAAAAUAAUCGCGUGGAUAUGGCACGCAAGUUUCUACCGGGCACCGUAAAUGUCCGACUGGAGCCGUUCGGGCGGCUAUAAACAGACCUCAGGCCCGAAGCGUGGCGGCACCUGCCGCCGGUGGUAAAAAAGAUCGGAAGAGCACACGUCU [U7G U8C G9U U10G U11A C12A C13A] to GGGUCGGCUGAAGAUAAUCGCGUGGAUAUGGCACGCAAGUUUCUACCGGGCACCGUAAAUGUCCGACUGGAGCCGUUCGGGCGGCUAUAAACAGACCUCAGGCCCGAAGCGUGGCGGCACCUGCCGCCGGUGGUAAAAAAGAUCGGAAGAGCACACGUCU [U7G U8C G9U U10G U11A C12A C13G], the “aptazyme ON/OFF ratio” value rises from 1.12 to 1.15.

First: GGGUCGGCUGAAUAUAAUCGCGUGGAUAUGGCACGCAAGUUUCUACCGGGCACCGUAAAUGUCCGACUGGAGCCGUUCGGGCGGCUAUAAACAGACCUCAGGCCCGAAGCGUGGCGGCACCUGCCGCCGGUGGUAAAAAAGAUCGGAAGAGCACACGUCU [U7G U8C G9U U10G U11A C12A C13U]
Second: GGGUCGGCUGUUUAUAAUCGCGUGGAUAUGGCACGCAAGUUUCUACCGGGCACCGUAAAUGUCCGACUGGAGCCGUUCGGGCGGCUAUAAACAGACCUCAGGCCCGAAGCGUGGCGGCACCUGCCGCCGGUGGUAAAAAAGAUCGGAAGAGCACACGUCU [U7G U8C G9U U10G C12U C13U]
The “aptazyme ON/OFF ratio” value of the first is higher: 1.38 for the first, 1.34 for the second.

Going from GGGUCGGCUGUUGAUAAUCGCGUGGAUAUGGCACGCAAGUUUCUACCGGGCACCGUAAAUGUCCGACUGGAGCCGUUCGGGCGGCUAUAAACAGACCUCAGGCCCGAAGCGUGGCGGCACCUGCCGCCGGUGGUAAAAAAGAUCGGAAGAGCACACGUCU [U7G U8C G9U U10G C12U C13G] to GGGUCGGCUGUUAAUAAUCGCGUGGAUAUGGCACGCAAGUUUCUACCGGGCACCGUAAAUGUCCGACUGGAGCCGUUCGGGCGGCUAUAAACAGACCUCAGGCCCGAAGCGUGGCGGCACCUGCCGCCGGUGGUAAAAAAGAUCGGAAGAGCACACGUCU [U7G U8C G9U U10G C12U C13A], the “aptazyme ON/OFF ratio” value falls from 1.39 to 1.29.

Going from GGGUCGGCUGACCAUAAUCGCGUGGAUAUGGCACGCAAGUUUCUACCGGGCACCGUAAAUGUCCGACUGGAGCCGUUCGGGCGGCUAUAAACAGACCUCAGGCCCGAAGCGUGGCGGCACCUGCCGCCGGUGGUAAAAAAGAUCGGAAGAGCACACGUCU [U7G U8C G9U U10G U11A] to GGGUCGGCUGCCCAUAAUCGCGUGGAUAUGGCACGCAAGUUUCUACCGGGCACCGUAAAUGUCCGACUGGAGCCGUUCGGGCGGCUAUAAACAGACCUCAGGCCCGAAGCGUGGCGGCACCUGCCGCCGGUGGUAAAAAAGAUCGGAAGAGCACACGUCU [U7G U8C G9U U10G U11C], the “aptazyme ON/OFF ratio” value falls from 1.21 to 1.15.
